Results taken from publication PMC8980893, “A fusion of the Bacteroides fragilis ferrous iron import proteins reveals a role for FeoA in stabilizing GTP-bound FeoB” (The Journal of Biological Chemistry, 2022).

What was measured:
BfNFeoAB = molecular target: T1, BfNFeoAB (Bacteroides fragilis, UniProt Q5LFM5); test: hydrogen-deuterium exchange mass spectrometry; assay type: binding; conditions: 25 mM Tris pD 7.5, 300 mM NaCl, 2% glycerol, 1 mM TCEP, 25 °C
T1 construct: gene BF9343_1287; N-terminal soluble domain of natural FeoAB fusion (FeoA, linker, G-protein and GDI domains), residues 1-438, without transmembrane region; from E. coli C43(DE3) deltaacrB; monomer, about 53 kDa; PDB 7R7B covers FeoA residues 1-74 only
T1 sequence (Q5LFM5 1-438): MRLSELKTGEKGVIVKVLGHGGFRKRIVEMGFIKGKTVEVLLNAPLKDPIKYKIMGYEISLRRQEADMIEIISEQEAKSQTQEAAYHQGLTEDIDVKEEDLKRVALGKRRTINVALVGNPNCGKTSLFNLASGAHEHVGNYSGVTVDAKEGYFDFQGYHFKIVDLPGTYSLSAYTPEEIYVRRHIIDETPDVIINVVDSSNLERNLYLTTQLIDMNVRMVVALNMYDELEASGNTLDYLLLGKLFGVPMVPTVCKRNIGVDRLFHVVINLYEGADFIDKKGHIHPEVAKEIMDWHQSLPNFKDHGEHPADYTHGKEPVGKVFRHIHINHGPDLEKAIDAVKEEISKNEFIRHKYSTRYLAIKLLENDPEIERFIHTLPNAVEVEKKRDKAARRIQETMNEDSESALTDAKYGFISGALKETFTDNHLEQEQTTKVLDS

[1] = molecular target: NFeoB region (G-protein domain and GDI domain) of Bacteroides fragilis FeoAB (Bacteroides fragilis)
[2] = molecular target: soluble N-terminal domain of Bacteroides fragilis FeoAB (FeoA fused to the N-terminal GTP-binding domain of FeoB) (Bacteroides fragilis); test: SEC; 120-ml Superdex 200, 4 °C, 25 mM Tris pH 7.5, 300 mM NaCl, 2% glycerol, 1 mM TCEP; after IMAC

Nc1nc2c(ncn2[C@@H]2O[C@H](COP(=O)(O)OP(=O)(O)NP(=O)(O)O)[C@@H](O)[C@H]2O)c(=O)[nH]1 [GMP-PNP]
hydrogen-deuterium exchange mass spectrometry (BfNFeoAB; 5 mM GMP-PNP, nonhydrolyzable GTP analog): Binding of the nonhydrolyzable GTP analog with GMP-PNP elicits increases in protein protection

Nc1nc2c(ncn2[C@@H]2O[C@H](COP(=O)(O)OP(=O)(O)O)[C@@H](O)[C@H]2O)c(=O)[nH]1 [GDP]
hydrogen-deuterium exchange mass spectrometry (BfNFeoAB; 5 mM GDP): binding of GDP elicits a mixture of protein protection and deprotection

FeoA domain of Bacteroides fragilis FeoAB (domain or fragment)
kcat of GTP hydrolysis by BfNFeoAB (FeoA present on the chain), 1D-31P NMR, 37 °C [1]: 0.00071 s⁻¹ | kcat of GTP hydrolysis by BfNFeoB-L (FeoA deleted), malachite green assay, 37 °C [1]: 0.037 s⁻¹

soluble N-terminal domain of Bacteroides fragilis FeoAB (FeoA fused to the N-terminal GTP-binding domain of FeoB) (domain or fragment)
stoichiometry N [2]: 3
